The source of these data is US20210292416A1 (Eli Lilly, published 2021).

A value given as a limit tells only on which side of the number the result lay.

For one assay, the target named is T1, human CD137-ECD (human, UniProt Q07011 24-186).
T1 construct: In-house generated soluble ECD
The assay is described as follows: SPR (Biacore 2000) at 37 C, antibody captured on Protein A, soluble CD137-ECD as analyte, steady state affinity fit. For orientation: In SPR one partner is held on a chip, and binding of the other changes the refractive index at the surface.

Another assay concerns the target human CD137 (on cells) (human, UniProt Q07011 24-255). The experiment in a line: cell-based or functional assay.
Assay [1] deals with T2, human PD-1 (on cells) (human, UniProt Q15116 25-288). The experiment in a line: cell-based or functional assay.
Assay [2] addresses T3, human CD137-ECD-C121S-Fc mutant K115Q (human, UniProt Q07011 24-186).
T3 construct: Mutant of human CD137-ECD-C121S-Fc; not shown: Fc part
The assay is described as follows: point ELISA on coated CD137-Fc mutant, mean of normalised absorbance over eight concentrations. From the text: (§1) The CD137-Fc mutants are generated using the standard protocol of a commercially-available site directed mutagenesis kit (Quickchange II kit, […]). The wild-type and mutant CD137-Fc proteins are expressed and purified. […] To determine the impact of a mutation on the binding of the antibodies, a point ELISA assay against CD137-Fc wild type and mutants is utilized. The wells of a 96-well Immulon 4HBX ELISA plate are coated overnight with 50 nanograms of human CD137-ECD-C121S-Fc or its mutants in 100 microliters of PBS, pH 7.2 with mild agitation at 4° C. After blocking (with 5% BSA in PBST) and washing, a five-fold dilution eight-point series (100 to 0.00128 nanomolar) of the designated antibody is added and incubated with mild agitation at room temperature for 1 h. The wells are washed and a HRP-conjugated secondary antibody (1:10000 dilution of HRP-conjugated goat anti-Fab antibody (Jackson ImmunoResearch Laboratories) is added and incubated at room temperature following standard protocol. TMB peroxidase chromogenic substrate and stop solution are used according to manufacturer's instruction for visualization and detection of signals. Absorbance readings for each concentration point is normalized by the absorbance of the wild-type interaction. For each mutant, the mean of the normalized ratio for the eight concentrations is determined.
On the technique in general: In an ELISA, binding on a coated surface is turned into a signal by an enzyme label.

Assay [3] concerns the target T4, human CD137-ECD-C121S-Fc mutant M101R (human, UniProt Q07011 24-186).
T4 construct: Mutant of human CD137-ECD-C121S-Fc; not shown: Fc part
The assay is described as above.
From the text: as §1

Assay [4] deals with T5, human CD137-ECD-C121S-Fc mutant N42S (human, UniProt Q07011 24-186).
T5 construct: Mutant of human CD137-ECD-C121S-Fc; not shown: Fc part
Described as above.
From the text: as §1

Assay [5] addresses T6, human CD137-ECD-C121S-Fc mutant D63N (human, UniProt Q07011 24-186).
T6 construct: Mutant of human CD137-ECD-C121S-Fc; not shown: Fc part
Described as above.
From the text: as §1

Assay [6] deals with T7, human CD137-ECD-C121S-Fc mutant Q104K (human, UniProt Q07011 24-186).
T7 construct: Mutant of human CD137-ECD-C121S-Fc; not shown: Fc part
The description is as above.
From the text: as §1

Assay [7] addresses T8, human CD137-ECD-C121S-Fc mutant P27L (human, UniProt Q07011 24-186).
T8 construct: Mutant of human CD137-ECD-C121S-Fc; not shown: Fc part
Described as above.
From the text: as §1

The target of assay [8] is T9, human CD137-ECD-C121S-Fc mutant K114E (human, UniProt Q07011 24-186).
T9 construct: Mutant of human CD137-ECD-C121S-Fc; not shown: Fc part
Described as above.
From the text: as §1

Assay [9] addresses T10, human CD137-ECD-C121S-Fc mutant S100T (human, UniProt Q07011 24-186).
T10 construct: Mutant of human CD137-ECD-C121S-Fc; not shown: Fc part
The assay is described as above.
From the text: as §1

The target of assay [10] is T11, human CD137-ECD-C121S-Fc mutant A97P (human, UniProt Q07011 24-186).
T11 construct: Mutant of human CD137-ECD-C121S-Fc; not shown: Fc part
Described as above.
From the text: as §1

The target in assay [11] is T12, human CD137-ECD-C121S-Fc mutant Q67V (human, UniProt Q07011 24-186).
T12 construct: Mutant of human CD137-ECD-C121S-Fc; not shown: Fc part
The description is as above.
From the text: as §1

Assay [12] deals with T13, human CD137-ECD-C121S-Fc mutant G98K (human, UniProt Q07011 24-186).
T13 construct: Mutant of human CD137-ECD-C121S-Fc; not shown: Fc part
Described as above.
From the text: as §1

Assay [13] addresses T14, human CD137-ECD-C121S-Fc mutant Q67R (human, UniProt Q07011 24-186).
T14 construct: Mutant of human CD137-ECD-C121S-Fc; not shown: Fc part
The assay is described as above.
From the text: as §1

The target of assay [14] is T15, human CD137-ECD-C121S-Fc mutant G98Q (human, UniProt Q07011 24-186).
T15 construct: Mutant of human CD137-ECD-C121S-Fc; not shown: Fc part
Described as above.
From the text: as §1

The target in assay [15] is T16, human PD-1-extracellular domain (ECD) (human, UniProt Q15116 25-170).
T16 construct: also called human PD-1-ECD; PD-1-ECD
The experiment in a line: SPR (Biacore 2000) at 37 C, antibody captured on Protein A, soluble PD-1-ECD as analyte, 1:1 Langmuir fit, mean ± SD. As for the experimental part:
Samples are diluted in HBS-EP+(10 mM HEPES, 150 mM NaCl, 0.05% Tween-20, pH 7.6) running buffer (Teknova Cat #H8022). Protein A (5 mg/mL, Calbiochem Cat #539202) is immobilized on flow cells 1 to 4 of a CM5 senor chip (GE Healthcare Cat #29149604) at a level of 3000 to 4000 response units (RUs) using amine coupling chemistry. Briefly, the surfaces of all four flow cells are activated by injecting a 1:1 mixture of EDC/NHS for 7-minutes at 10 μL/minute. Protein A is diluted to 200 μg/mL in 10 mM acetate, pH 4.5 buffer and immobilized for approximately 3000-4000 RUs onto all four flow cells by 7-minute injection at flow rate of 10 μL/minute. Unreacted sites are blocked with a 7-minute injection of 1M Ethanolamine-HCl pH 8.5 at 10 μL/minute. Five 30-second injections of glycine pH 1.5 at 10 μL/minute are used to remove any non-covalently associated protein.
Binding is evaluated using multi-cycle kinetics by an antibody capture method. […] All analyte concentrations are determined utilizing monomeric molecular weight (MW) values. Association rates (kₒₙ) and dissociation rates (koff) for PD-1-ECD are evaluated using double referencing by flow-cell 1 reference subtraction in addition to 0 nM blank subtraction and fit to “1:1 (Langmuir) binding” model in the BIAevaluation software version 4.1. […]

The target of assay [16] is T2, human PD-1 (on cells). The assay is described as follows: cell-based or functional assay. The source holds these as a separate data set.

Sequence of human CD137 (on cells) (Q07011 24-255 limits assumed): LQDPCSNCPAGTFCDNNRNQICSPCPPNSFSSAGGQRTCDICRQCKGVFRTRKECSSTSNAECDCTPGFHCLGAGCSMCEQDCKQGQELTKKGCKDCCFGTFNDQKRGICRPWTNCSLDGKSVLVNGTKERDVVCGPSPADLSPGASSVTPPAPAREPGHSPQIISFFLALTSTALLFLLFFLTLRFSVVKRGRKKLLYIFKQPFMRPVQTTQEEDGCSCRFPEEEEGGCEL
T2 sequence (Q15116 25-288 limits assumed): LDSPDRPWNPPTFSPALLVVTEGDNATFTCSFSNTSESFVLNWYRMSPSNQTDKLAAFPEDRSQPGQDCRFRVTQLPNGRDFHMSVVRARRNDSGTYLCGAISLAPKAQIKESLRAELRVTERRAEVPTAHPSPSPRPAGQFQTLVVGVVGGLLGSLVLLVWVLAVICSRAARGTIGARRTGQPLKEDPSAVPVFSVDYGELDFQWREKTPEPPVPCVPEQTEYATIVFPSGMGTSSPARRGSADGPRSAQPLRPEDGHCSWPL
T13 sequence (Q07011 24-186 G98K/C121S): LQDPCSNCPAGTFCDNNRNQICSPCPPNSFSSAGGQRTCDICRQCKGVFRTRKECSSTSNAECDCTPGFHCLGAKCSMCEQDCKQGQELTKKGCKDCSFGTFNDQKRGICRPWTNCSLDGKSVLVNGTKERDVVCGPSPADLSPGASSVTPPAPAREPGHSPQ
T3 sequence (Q07011 24-186 K115Q/C121S): as the sequence (Q07011 24-186 G98K/C121S) above, with K75G, K92Q counted along it
T7 sequence (Q07011 24-186 Q104K/C121S): as the sequence (Q07011 24-186 G98K/C121S) above, with K75G, Q81K counted along it
T11 sequence (Q07011 24-186 A97P/C121S): as the sequence (Q07011 24-186 G98K/C121S) above, with A74P, K75G counted along it
T14 sequence (Q07011 24-186 Q67R/C121S): as the sequence (Q07011 24-186 G98K/C121S) above, with Q44R, K75G counted along it
T8 sequence (Q07011 24-186 P27L/C121S): as the sequence (Q07011 24-186 G98K/C121S) above, with P4L, K75G counted along it
T15 sequence (Q07011 24-186 G98Q/C121S): as the sequence (Q07011 24-186 G98K/C121S) above, with K75Q counted along it
T9 sequence (Q07011 24-186 K114E/C121S): as the sequence (Q07011 24-186 G98K/C121S) above, with K75G, K91E counted along it
T10 sequence (Q07011 24-186 S100T/C121S): as the sequence (Q07011 24-186 G98K/C121S) above, with K75G, S77T counted along it
T6 sequence (Q07011 24-186 D63N/C121S): as the sequence (Q07011 24-186 G98K/C121S) above, with D40N, K75G counted along it
T12 sequence (Q07011 24-186 Q67V/C121S): as the sequence (Q07011 24-186 G98K/C121S) above, with Q44V, K75G counted along it
T4 sequence (Q07011 24-186 M101R/C121S): as the sequence (Q07011 24-186 G98K/C121S) above, with K75G, M78R counted along it
T5 sequence (Q07011 24-186 N42S/C121S): as the sequence (Q07011 24-186 G98K/C121S) above, with N19S, K75G counted along it
T1 sequence (Q07011 24-186 limits assumed): as the sequence (Q07011 24-186 G98K/C121S) above, with K75G, S98C counted along it
T16 sequence (Q15116 25-170 limits assumed): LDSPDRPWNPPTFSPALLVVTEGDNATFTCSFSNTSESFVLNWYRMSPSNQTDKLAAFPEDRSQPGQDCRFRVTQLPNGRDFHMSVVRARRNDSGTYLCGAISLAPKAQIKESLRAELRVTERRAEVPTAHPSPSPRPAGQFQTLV

B1: Antibody p-7A5 (the parental antibody of the anti-CD137 arm of Antibody A) (antibody, V domains shown)
VH: QVQLVQSGAEVKKPGSSVKVSCKASGGTFSSYAISWVRQAPGQGLEWMGGIIPIFGTANYAQKFQGRVTITADESTSTAYMELSSLRSEDTAVYYCARDLMTTAPGTYFDLWGRGTLVTVSS
VL: AIRMTQSPPSLSASVGDRVTITCQASQDIGNSLGWYQQKPGKAPKLVIFDASDLETGVPSRFSGSGSGTDFSLTISSLQPEDFATYYCQQGNSFPLTFGQGTRLEIK
notes: Parental monoclonal anti-CD137 antibody; also called Antibody 7A5; parental antibody 7A5
As usually defined, the Kd is a measure of binding affinity in units of concentration. Take B1: the affinity in the assay with human CD137-ECD, expressed as Kd, was 341 nM. In the assay with human CD137 (on cells), the “fold induction of NFkB-Luc luciferase signal at 0.01 nM antibody” value came to 0.98 fold. The “fold induction of NFkB-Luc luciferase signal at 0.04 nM antibody” value with human CD137 (on cells) was 0.88 fold. In addition, the “fold induction of NFkB-Luc luciferase signal at 0.15 nM antibody” value with human CD137 (on cells) was determined as 0.94 fold. Further, in the assay with human CD137 (on cells), the “fold induction of NFkB-Luc luciferase signal at 0.59 nM antibody” value was 1.07 fold. For the same molecule, in the assay with human CD137 (on cells), the “fold induction of NFkB-Luc luciferase signal at 2.34 nM antibody” value was found to be 1.66 fold. Besides, in the assay with human CD137 (on cells), the “fold induction of NFkB-Luc luciferase signal at 9.38 nM antibody” value amounted to 2.29 fold. Further, the “fold induction of NFkB-Luc luciferase signal at 37.50 nM antibody” value with human CD137 (on cells) is 2.72 fold. For the same molecule, the “fold induction of NFkB-Luc luciferase signal at 150.00 nM antibody” value with human CD137 (on cells) was found to be 2.6 fold. The “IFN-γ mean EC50 in allogeneic MLR assay (3 donor pairs)” value with human PD-1 (on cells) [1] was more than 32 nM. For the same molecule, in the assay with human PD-1 (on cells) [1], the “IL-2 mean EC50 in allogeneic MLR assay (3 donor pairs)” value is more than 32 nM. For the same molecule, the “% of binding relative to wild-type hCD137” value came to 25% in assay [2]; 100% in [3]; 100% in [4]; 100% in assay [5]; 100% in [6]; 100% in [7]. In addition, the “% of binding relative to wild-type hCD137” value in [8] came out at 20%; in assay [9], 100%; in [10] it was 15%; in [11], 100%; in assay [12], 85%; in assay [13], 100%. Further, in assay [14], the “% of binding relative to wild-type hCD137” value turned out to be 100%.

B2: Antibody p-11444 (the parental antibody of the anti-PD1 arm of Antibody A) (antibody, V domains shown)
VH: QVQLVQSGAEVKKPGSSVKVSCKASGGTFSSYAISWVRQAPGQGLEWMGLIIPMFDTAGYAQKFQGRVAITVDESTSTAYMELSSLRSEDTAVYYCARAEHSSTGTFDYWGQGTLVTVSS
VL: DIQMTQSPSSVSASVGDRVTITCRASQGISSWLAWYQQKPGKAPKLLISAASSLQSGVPSRFSGSGSGTDFTLTISSLQPEDFATYYCQQANHLPFTFGGGTKVEIK
notes: Parental monoclonal anti-PD-1 antibody
For B2, in assay [15], binding was characterised by a dissociation constant (Kd) of 3.1 nM. Further, in the assay with human PD-1 (on cells) [1], the “IFN-γ mean EC50 in allogeneic MLR assay (3 donor pairs)” value is 88 pM and the “IL-2 mean EC50 in allogeneic MLR assay (3 donor pairs)” value stood at 0.238 nM. For the same molecule, the “EC50, NFAT-Luc reporter assay (Jurkat PD-1+CD137+NFAT-Luc2 cells with CHO-K1 PD-L1+TCR activator cells)” value with human PD-1 (on cells) [16] was found to be 1.4 nM.

B3: BMS20H4.9 (antibody, V domains shown)
VH: QVQLQQWGAGLLKPSETLSLTCAVYGGSFSGYYWSWIRQSPEKGLEWIGEINHGGYVTYNPSLESRVTISVDTSKNQFSLKLSSVTAADTAVYYCARDYGPGNYDWYFDLWGRGTLVTVSS
VL: EIVLTQSPATLSLSPGERATLSCRASQSVSSYLAWYQQKPGQAPRLLIYDASNRATGIPARFSGSGSGTDFTLTISSLEPEDFAVYYCQQRSNWPPALTFGGGTKVEIKR
On to B3, for which the “% of binding relative to wild-type hCD137” value in assay [2] was 100%; in assay [3] it was 100%; in [5], 100%; in assay [6], 100%; in assay [7] it was 85%; in assay [8], 100%. For the same molecule, the “% of binding relative to wild-type hCD137” value in assay [9], in assay [10], in assay [11], in [12], in assay [13] and in assay [14] was 100% each time.
